Assay results reported in the RNAGym collection of RNA variant scans (doi:10.1073/pnas.2313332121).

B1: TPR t1 (parent)
chain: GACCAAUCUGCCCUCAGAGCUCGAGAACAUCUUCGGAUGCAGAGGAGGCAGGCUUCGGUGGCGCGAUAGCGCCAACGUCCUCAACCUCCAAUGCAUCCCACCACAUGAUGAUGCCUGAAGAGCCUUGGUUUUUUG

Variants of: B1
Assay: polymerase ribozyme fitness, log enrichment relative to wild type (log ratio); higher = more active; in vitro selection for triplet polymerase activity
Summary of the method: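 Frozen incubation at −7 °C formed the core of a single, triplicate in vitro selection round applied to PCR-built, transcribed mutant libraries of each subunit of a heterodimeric triplet polymerase ribozyme. Extended constructs were gel-excised, captured with streptavidin beads and amplified by RT-PCR, and input and output libraries were Illumina-sequenced with a filter of ≥10 input reads and ≥1 read per output. Fitness is the logarithm of genotype enrichment relative to wild-type enrichment, with inverse-variance-weighted replicate averaging, and the logarithm is base 2.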

Variant | polymerase ribozyme fitness (log ratio)
GACCAAUCUGCCCUCAGAGCUCGAGAACAUCUUCAGAUGCAGAGGAGGCAGGCUUCGGUGGCGCGAUACCGCCAACGUCCUCAACCGCCAAUGCAUCCCACCACAUGAUGAUGCCUGAAGAGCCUUGGUUUUUUG | -5.37
GACCAAUCUGCCCUCAGAGCUCGAGAACAUCUUCAGAUGCAGAGGAGGCAGGCUUCGGUGGCGCGAUAUCGCCAACGUCCUCAACCUCCAAUGCAUCCCAGCACAUGAUGAUGCCUGAAGAGCCUUGGUUUUUUG | -2.83
GACCAAUCUGCCCUCAGAGCUCGAGAACAUCUUCAGAUGCAGAGGAGGCAGGCUUCGGUGGCGCGAUAGCGCCAACGUCCUCAACCUCCAAUGCAUCCCACCACAUGAUGAUACCUGAAGAGCCUUGGUUUUUUG | -4.16
GACCAAUCUGCCCUCAGAGCUCGAGAACAUCUUCAGAUGCAGAGGAGGCAGGCUUCGGUGGCGCGAUAGCGCCAACGGCCUCAACCUCCAAUGCAUCCCACCACAUGAUGAUGCCUGAAGAGCCUUGGUUUUUUG | -4.14
GACCAAUCUGCCCUCAGAGCUCGAGAACAUCUUCCGAUGCAGAGGCGGCAGGCUUCGGUGGCGCGAUAGCGCCAACGUCCUCAACCUCCAAUGCAUUCCACCACAUGAUGAUGCCUGAAGAGCCUUGGUUUUUUG | -6.04
GACCAAUCUGCCCUCAGAGCUCGAGAACAUCUUCCGAUGCAGAGGAGGCAGGCUUCGGUGGCGCGAUAGCGCCAACGUCCUCAACCUCCAAUGCUUCCCACCACAUGAUGAUGCCUGAAGAGCCUUGGUUUUUUG | -4.31
GACCAAUCUGCCCUCAGAGCUCGAGAACAUCUUCCGAUGCAGAGGAGGGAGGCUUCGGUGGCGCGAUAGCGCCAACGUCCUCAACCUCCAAUGCAUCGCACCACAUGAUGAUGCCUGAAGAGCCUUGGUUUUUUG | -2.89
GACCAAUCUGCCCUCAGAGCUCGAGAACAUCUUCCGAUGCAGAGGAGGCAGGUUUGGGUGGCGCGAUAGCGCCAACGUCCUCAACCUCCAAUGCAUCCCACCACAUGAUGAUGCCUGAAAAGCCUUGGUUUUUUG | -2.61
GACCAAUCUGCCCUCAGAGCUCGAGAACAUCUUCCGAUGCAGAGGAGGCAGGCUUCGGUGGCGCGAUAGCGCCAACGUUCUCAACCUCCAAUGCAUCCCACCAAAUGAUGAUGCCUGAAGAGCAUUGGUUUUUUG | -5.25
GACCAAUCUGCCCUCAGAGCUCGAGAACAUCUUCCGAUGCAGAGGAGGCAGGCUUCGGUGGCGCGAUAGCGCCAACGUCCUCAACCUACAAUGCAUCCCACCACAUGAUGAUGCCUGAAGAGCCUUGGUUUUUUG | -5.61
GACCAAUCUGCCCUCAGAGCUCGAGAACAUCUUCCGAUGCAGAGGAGGCAGGCUUCGGUGGCGCGAUAGCGCCAACGUCCUCAACCUCCAAUGCAUACCACCACAUGAUGAUGCCUGAAGAGCCUUGGUUUUUUG | -5.43
GACCAAUCUGCCCUCAGAGCUCGAGAACAUCUUCCGAUGCAGAGGAGGCAGGCUUCGGUGGCGCGAUAGCGCCAACGUCCUCAACCUCCAAUGCAUCACACCCCAUGAUGAUGCCUGAAGAGUCUUGGUUUUUUG | -5.49
GACCAAUCUGCCCUCAGAGCUCGAGAACAUCUUCCGAUUCAGAGGAGGCAGGCUUCGGUGGCGCGAUAGCGCCAACGUCCUCAACCUCCAAUGCAUCCCACCACAUGAUGAUGCCUGAAGAGCCUUGGUUUUUUG | -5.8
GACCAAUCUGCCCUCAGAGCUCGAGAACAUCUUCCGAUGCAGAGGAGGCAGGCUUCGGUGGCACGAUAGCGCAAACGUCCUCAACCUCCAAUGCAUCCCACCACAUGAUGAUGCCUGAAGAGCCUUGGUUUUUUG | -5.71
GACCAAUCUGCCCUCAGAGCUCGAGAACAUCUUCCGAUGCAGAGGAGGCAGGCUUCGGUGGCUCGAUAGCGCCUACGUCCUCAACCUCCGAUGCAUCCCACCACAUGAUGAUGCCUGAAGAGGCUUCGUUUUUUG | -6.64
GACCAAUCUGCCCUCAGAGCUCGAGAACAUCUUCCGAUGCAGAGGAGGCAGGCUUCGGUGGCGCGAUAGCGCCAACGUCCUCAACCUCCAAUGCAUCCCACCACAUGAUGAUGCCUGAAUAGCCUUGGUUUUUUG | -3.99
GACCAAUCUGCCCUCAGAGCUCGAGAACAUCUUCCGAGGCAGAGGAGGCAGGCUUCGGUGGCCCGAUAGCGCCAACGUCCUCAACCUCCAAUGCAUCCCACCACAUGAUGAUGCCUGAAGAGACUUGGAUUUUUG | -5.52
GACCAAUCUGCCCUCAGAGCUCGAGAACAUCUUCCGAUGCAGAGGAGGCAGGCUUCGGUGGCGCGAUAGCGCCAACGUCCACAACCUCCAAUGCAUCCCACCACAUGAAGAUGACUGAAGAGGCUUGGUUUUUUG | -5.16
GACCAAUCUGCCCUCAGAGCUCGAGAACAUCUUCUGAUGCAGAGGAGGCAGGCUUCGGUGGCGCGAUAGCGCCAACGUCCUCAACCUCCAAUGCAUCCCUCCACAUGAUGAUGCCUGAAGAGCCUUGGUUUUUUG | -5.66
GACCAAUCUGCCCUCAGAGCUCGAGAACAUCUUCUGAUGUAGAGGAGGCAGGCUUCGGUGACGCGAUAGCGCCAACGUCCUCAACCUCCAAUGCAUCCCACCACAUGAUGAUGCCUGAAGAGCUUUGGUUUUUUG | -4.87
GACCAAUCUGCCCUCAGAGCUCGAGAACAUCUUCUGAUGCAGAGGAGGCAGGCUUUGGUGGCGCGAUAGCGCCAACGUCCUCAACCUCCAAUGCAUCCCACCACAUGAUGAUGCCUGAAGAGCCUUGGUUUUUUG | -4.99
